Target: actin filaments (actin from Gallus gallus skeletal muscle) (Gallus gallus (chicken), UniProt P68139 1-377)
Assay: co-sedimentation; 4 µM EGFP–SFM peptide with 0–200 µM actin filaments in F buffer, 1 h at room temperature, 100,000g for 30 min; pellet read by anti-EGFP western blot; one-site specific binding fit; apparent
Settings: both partners purified

B1: EGFP-tagged ESPNL SFM peptide (peptide)
chain: IQEWGVSVRTLRGNFESASGPLC
modifications: Limits from translated primers P11/P12 (7 residues either side of SFM 652-660). Construct also has an initiator Met before the peptide and a C-terminal linker-EGFP-TEV-His, left out.
With B1 the Kd was 6 µM.
